Source: the supplement of paper PMC9170038

What follows are sequences tested on MS2 coat protein (assay: apparent KD of MS2 coat protein, switch OFF state (with FMN for OFF switches, without FMN for ON switches); designed switch direction (-1 OFF switch, 1 ON switch): -1; higher = weaker reporter binding). Details: FMN input: 0 or 200 uM; Eterna round: R93 (includes R88 designs).
In short: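 For every design, apparent KD is the median of normalised binding-curve fits from its clusters. The RNA switches were transcribed on-chip from Illumina sequencing clusters and titrated with SNAP-549-labelled MS2 coat protein (twofold steps, 0.7 or 1.5 nM to 3 µM; 0.8–1.5 h to 10–20 min per step). Titrations used 100 mM Tris-HCl pH 7.5, 80 mM KCl, 4 mM MgCl2, without or with constant ligand.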
“AGUUGGCGAGGAUAUACAUGAGGAUCACCCAUGUGAAAGAAAAAAGUGAAAAAGAAAAGUAGAAGGCGCUGACA [73%, Moding Norbert Elias, 4]” was tested, and the “apparent KD of MS2 coat protein” value was 131 nM. With “AGCUAGUGAGGAUAUACGAACAUGUCAAAAGACGUGAAGGGACAUGAGGAUCACCCAUGUAGAAGGCGCUAGCA [JL 74% mod]” the “apparent KD of MS2 coat protein” value was 157 nM. In the case of “CUCAAGUAAGGAUAUUGAAGAAAAGAAGAGAAAGAAAAGAACAAGAAGGUACAUGAGGAUCACCCAUGUAAGAA [EteRNA is fun!]”, the “apparent KD of MS2 coat protein” value was 16.6 nM. “CUUAUGUCAGGAUAUCAGUAGUAAAAAAAUAAAAUUACUACUGAGAAGGGACAUGAGGAUCACCCAUGUCCGGG [EX4 369: Super Stable 69]” was tested, and the “apparent KD of MS2 coat protein” value was 34 nM. In the case of “AAGAAGUGAGGAUAUACGCGAACAAAAAAAAAAAAGAAAGCGUAGAAGGCACAUGAGGAUCACCCAUGUCCAAA”, the “apparent KD of MS2 coat protein” value was 34.9 nM. With “AGUGAGUGAGGAUAUUACUGAAGAAUAAAAGAAAUAACGAGUAAGAAGGCACAUGAGGAUCACCCAUGUACACA [May 62]” the “apparent KD of MS2 coat protein” value was 24 nM. For “CCUGUGUGAGGAUAUGGUAAAAAAAAAAAAAAAAAGCUCCUCCAGAAGGCACAUGAGGAUCACCCAUGUCGUGG [Jolly's Folly 15 - Jieux - Exclusion 4]”, the “apparent KD of MS2 coat protein” value was 38.2 nM. For “AAACUACUAGGAUAUACAACGGUGUCCUAACUACUAAGAAAACAUGAGGAUCACCCAUGUAGAAGGAGUAGUGA [Lauslabe]”, the “apparent KD of MS2 coat protein” value was 30.2 nM. In the case of “AAAAUGUCAGGAUAUUCGGAUAGGAAAACGAAAACCUAUCCGAAGAAGGGACAUGAGGAUCACCCAUGUAAAAA [Starry Exclusion 4.2 (cataway round 1 mod)]”, the “apparent KD of MS2 coat protein” value was 341 nM. “GAAAAGUCAGGAUAUGCAGACAAAGCAAAAAAGCAAUGUCUGCAGAAGGGACAUGAGGAUCACCCAUGUAAAAA [Mat - Exclusion 4 - Mayanna - D115]” was tested, and the “apparent KD of MS2 coat protein” value was 45.2 nM. In the case of “AAUAAGUGAGGAUAUGGAAAUAGUAGAUAAGAUACCCUAAACCAGAAGGCACAUGAGGAUCACCCAUGUAAAUA [JR_Exc004_Sub004]”, the “apparent KD of MS2 coat protein” value was 23.7 nM. “AGGUGACAUGAGGAUCACCCAUGUCAGGAUAUAUACACCACCGGCGUGAAGCCGGCGGAUAGAAGGGACAAAAU [Anesar]” was tested, and the “apparent KD of MS2 coat protein” value was 18.2 nM. “AAAUAGUUAGGAUAUACAUGAGGAUCACCCAUGUGGACUGAUGUCGCGUGAUUCAGUGGUAGAAGGGACUCAAA [EX2 Malc#36]” was tested, and the “apparent KD of MS2 coat protein” value was 75 nM. For “AACAGUACAGGAUAUACAUGAGGAUCACCCAUGUGAAAAUUAAGUGGGAAACCACAGUGUAGAAGGGUACUGGA [Mat - Exclusion 3 - Eli mod - D54]”, the “apparent KD of MS2 coat protein” value was 51.9 nM. In the case of “AUAAAGUGAGGAUAUGCUAAUAAAUAAAUAGACAAAUAAAUGCAGAAGGCACAUGAGGAUCACCCAUGUAAGAA [Ex 4 Tesla 3]”, the “apparent KD of MS2 coat protein” value was 28.9 nM. In the case of “AACUGACAUGAGGAUCACCCAUGUCAGGAUAUGACAUCGAAAAAAAAAAAAAUCGUUGUCAGAAGGGACAUGAA [Design 77: Sub-opt SB]”, the “apparent KD of MS2 coat protein” value was 13.1 nM. “AAGAAGUCAGGAUAUGCCAGAGAUCACGAAAGUGACGAGUAGCAGAAGGGACAUGAGGAUCACCCAUGUAAAGA [Opal 7]” was tested, and the “apparent KD of MS2 coat protein” value was 45 nM. With “AAAGAUUGAGGAUAUACAUGAGGAUCACCCAUGUAAAAAAAAAAAAGGGUGGAAGAAAGUAGAAGGCAACAAAA [Ex 3 May 46]” the “apparent KD of MS2 coat protein” value was 284 nM. “AAGGGACAUGAGGAUCACCCAUGUCAGGAUAUGCGAAAAAAAAAAAUAAAAAAAAAAAGCAGAAGGGACACCAA [Mat - Exclusion 1 - Eli mod - D58]” was tested, and the “apparent KD of MS2 coat protein” value was 102 nM. For “ACAGUUAGAGGAUAUACGUGGAAAAAUAAAAAUAAAAAACUACAUGAGGAUCACCCAUGUAGAAGGCUAACUGA [Ex2 Design 196: Random 12E]”, the “apparent KD of MS2 coat protein” value was 66.1 nM. With “AGGAAACAUGAGGAUCACCCAUGUCAGGAUAUACAAAAGAAAAGAAAAGAAAGAAGAAGUAGAAGGGACACGAA [Double Falcon]” the “apparent KD of MS2 coat protein” value was 22.5 nM. For “UCUUGACAUGAGGAUCACCCAUGUCAGGAUAUAGUAGGACAAAUAAAUAAAAGUUCUACUAGAAGGGAUAUGGA [Design 18: G-U+]”, the “apparent KD of MS2 coat protein” value was 12.7 nM. “AAAAAACAUGAGGAUCACCCAUGUAAGGAUAUGCUCGUGCGAAAAAGCACAAAAAAGAGCAGAAGGUACAAAAA [66%, Wbt, 40]” was tested, and the “apparent KD of MS2 coat protein” value was 34.4 nM. For “AAAAAACAUGAGGAUCACCCAUGUGAGGAUAUCUGUAUUCAAUCCUCGGAUUGAAUACAGAGAAGGCACAUGAA [Ex1: 611]”, the “apparent KD of MS2 coat protein” value was 330 nM. “AAGAACAGAGGAUAUGCUAAAGAAAUAAAAAUAAAUAAAGAACAUGAGGAUCACCCAUGUAGAAGGCUGAAGAA [Seven kings]” was tested, and the “apparent KD of MS2 coat protein” value was 28 nM. “AAAAAGUCAGGAUAUGUGGAAAAAAUAAAAAAAAUAAAAACACAGAAGGGACAUGAGGAUCACCCAUGUUAAAA [Ex 4 May 18]” was tested, and the “apparent KD of MS2 coat protein” value was 35.1 nM. In the case of “AGCUACUGAGGAUAUACGAACAUGUCAAAAGACGUAAGGGAACAUGAGGAUCACCCAUGUAGAAGGCAGUAGCA [Diamond 49]”, the “apparent KD of MS2 coat protein” value was 91.9 nM. For “GAAUACCUAGGAUAUACAUGAGGAUCACCCAUGUCAGUAGACUGGGAAAAGUCUCUCAGUAGAAGGAGGACCAG [Anaran]”, the “apparent KD of MS2 coat protein” value was 233 nM. For “AAAAAACAUGAGGAUCACCCAUGUGAGGAUAUCGUGCAGAAAAAAAAAAAAAACUGCACGAGAAGGCACAUGAA”, the “apparent KD of MS2 coat protein” value was 105 nM. For “AGUGAGUGAGGAUAUGCCUGAAGAAUAAAAGAAAUAACGAGGCAGAAGGCACAUGAGGAUCACCCAUGUACACA [May 65]”, the “apparent KD of MS2 coat protein” value was 28.2 nM. In the case of “GGUUGGCGAGGAUAUACAUGAGGAUCACCCAUGUGAGAGUAAAAAGUGAGAAAGAAAAGUAGAAGGCGCUGACG [salish99-ex3-46]”, the “apparent KD of MS2 coat protein” value was 85.1 nM. In the case of “AACAGUACAGGAUAUACAUGAGGAUCACCCAUGUAAAAAUAAAAAGGGAACUCAAAAAGUAGAAGGGUACUGGA [Moding Maslow revisited (73) 14]”, the “apparent KD of MS2 coat protein” value was 32.5 nM. In the case of “AAAAAGUGAGGAUAUCGGAAAAAAAAAAAAAAAAAAAAAAACGAGAAGGCACAUGAGGAUCACCCAUGUAAAAA [all GC all the time + G boost - take 2]”, the “apparent KD of MS2 coat protein” value was 45.6 nM. In the case of “GAAAAACAUGAGGAUCACCCAUGUCAGGAUAUCGAAAAAAAUAAAAAAGAAAAGAAAACGAGAAGGGACAAAAA [May 12]”, the “apparent KD of MS2 coat protein” value was 45.6 nM. With “AGCAAGUGAGGAUAUCUGGAUAGGAAAAAGAAAACCUAUCCAGAGAAGGCACAUGAGGAUCACCCAUGUAAAAA [JL cataway mod 7]” the “apparent KD of MS2 coat protein” value was 41.4 nM. With “AAAAAGGUAGGAUAUACAUGAGGAUCACCCAUGUCGCGGCGCGCGGACAGCCCGCCCUGUAGAAGGACCAAAAA [Default title]” the “apparent KD of MS2 coat protein” value was 28.6 nM. In the case of “AAAAAACAUGAGGAUCACCCAUGUGAGGAUAUGACUUAAAUAAAGAAAGAAGAAAUAGUCAGAAGGCACAAAUA [Mat - Mod of Nando]”, the “apparent KD of MS2 coat protein” value was 42.9 nM. “CCUAUGUCAGGAUAUCAGUAGUAAAAAAAAAAAAUUACUACUGAGAAGGGACAUGAGGAUCACCCAUGUCCAAA [EX4 312: Super Stable 12]” was tested, and the “apparent KD of MS2 coat protein” value was 18.4 nM. With “UAUACGUGAGGAUAUGCGAAUAACACGUUAGACAAAUAGACGCAGAAGGCACAUGAGGAUCACCCAUGUGAACC [JR_Exc004_Sub316]” the “apparent KD of MS2 coat protein” value was 17 nM. With “AAAAAACAUGAGGAUCACCCAUGUGAGGAUAUCCAGAAGGGAAUAAAAUAACACGAAAGGAGAAGGCACAAAAA [Ex 1 May 36]” the “apparent KD of MS2 coat protein” value was 31.7 nM. “GGUUGGCGAGGAUAUACAUGAGGAUCACCCAUGUGAGAGAAAUAAGUGAGAAAGAAAAGUAGAAGGCGCUGACG [salish99-ex3-43]” was tested, and the “apparent KD of MS2 coat protein” value was 1700 nM. With “GGUUGGCGAGGAUAUACAUGAGGAUCACCCAUGUGAGAGAAAAAAGUGAGAAACAAAAGUAGAAGGCGCUGACG [salish99-ex3-26]” the “apparent KD of MS2 coat protein” value was 657 nM. For “AAAACACAUGAGGAUCACCCAUGUGAGGAUAUGCUAGUGAAAAUAAAAAUAAAACAUAGCAGAAGGCACAAGGA [Amethyst 79]”, the “apparent KD of MS2 coat protein” value was 45.8 nM. For “AAAAAGUGAGGAUAUACGCUGAGGAGUAGACACAACCUGGCGUAGAAGGCACAUGAGGAUCACCCAUGUCCAAA [EX4 Malc#12]”, the “apparent KD of MS2 coat protein” value was 41.5 nM. “AACAGUACAGGAUAUACAUGAGGAUCACCCAUGUAAAGGGAAUAAAACAAAAAUAAAUGUAGAAGGGUACUGGA [Moding Maslow revisited (73) 21]” was tested, and the “apparent KD of MS2 coat protein” value was 129 nM.
